# According to paper PMC11417369, “DNA sequence and chromatin differentiate sequence-specific transcription factor binding in the human malaria parasite Plasmodium falciparum”:
# T1: AP2-HC D1 (Plasmodium falciparum, UniProt Q8IKR9 1316-1374)
# T1 sequence: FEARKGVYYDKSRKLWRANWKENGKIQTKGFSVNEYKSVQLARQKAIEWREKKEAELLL
# B1: CACACA_site3184 (dsDNA)
# DNA 1: TACTAAAACCCATACACACACATATATATAGTACCA
# DNA 2: TGGTACTATATATATGTGTGTGTATGGGTTTTAGTA
# B2: CACACA_site7688 (dsDNA)
# DNA 1: AATATAAATAAAAACACACACAATGGTACCTATATA
# DNA 2: TATATAGGTACCATTGTGTGTGTTTTTATTTATATT
# B3: CACACA_site3383 (dsDNA)
# DNA 1: ATATTAAACAAACACACACACATATATATATATATA
# DNA 2: TATATATATATATATGTGTGTGTGTTTGTTTAATAT
# B4: CACACA_site8256 (dsDNA)
# DNA 1: AAATAAAGCACACCGACACACACATATATATATATA
# DNA 2: TATATATATATATGTGTGTGTCGGTGTGCTTTATTT
# B5: CACACA_site6959 (dsDNA)
# DNA 1: GTTTCCTTAATATTCACACACATATCTATAATATAT
# DNA 2: ATATATTATAGATATGTGTGTGAATATTAAGGAAAC
# B6: CACACA_site498 (dsDNA)
# DNA 1: TACACCCACCAACACACACACACACCCAAAAAAAAA
# DNA 2: TTTTTTTTTGGGTGTGTGTGTGTGTTGGTGGGTGTA
# B7: CACACA_site7028 (dsDNA)
# DNA 1: CATACATACATACATACACACATATATAAATATATG
# DNA 2: CATATATTTATATATGTGTGTATGTATGTATGTATG
# B8: CACACA_site9374 (dsDNA)
# DNA 1: TATAGAATAATCTATAAACACACAAACACAACAAAA
# DNA 2: TTTTGTTGTGTTTGTGTGTTTATAGATTATTCTATA
# B9: CACACA_site1177 (dsDNA)
# DNA 1: TTAATTTATAAAAACACACACAGGTAAAAAGGTGCA
# DNA 2: TGCACCTTTTTACCTGTGTGTGTTTTTATAAATTAA
# B10: CACACA_site4316 (dsDNA)
# DNA 1: TGAATAAATCAAAGCACACATACACAGACATATATA
# DNA 2: TATATATGTCTGTGTATGTGTGCTTTGATTTATTCA
# B11: CACACA_site1963 (dsDNA)
# DNA 1: AACTTGTATATATACACACACACACTGTCTTTTTTT
# DNA 2: AAAAAAAGACAGTGTGTGTGTGTATATATACAAGTT
# B12: CACACA_site7791 (dsDNA)
# DNA 1: AAAATTAACCGTAACACACACACATATAAATATGTA
# DNA 2: TACATATTTATATGTGTGTGTGTTACGGTTAATTTT
# B13: CACACA_site8866 (dsDNA)
# DNA 1: CCGCCATTGTACCATCCACACACATATATATATGTA
# DNA 2: TACATATATATATGTGTGTGGATGGTACAATGGCGG
# B14: CACACA_site8859 (dsDNA)
# DNA 1: ACGATGTTCATCACTACACACACAAAGAAATATATA
# DNA 2: TATATATTTCTTTGTGTGTGTAGTGATGAACATCGT
# B15: CACACA_site5932 (dsDNA)
# DNA 1: GCATTGTCCATGCGCACACACTACTAGAATAATATG
# DNA 2: CATATTATTCTAGTAGTGTGTGCGCATGGACAATGC
# B16: CACACA_site65 (dsDNA)
# DNA 1: CATGTAATATTAAACACACACTCATATAACACAATA
# DNA 2: TATTGTGTTATATGAGTGTGTGTTTAATATTACATG
# B17: CACACA_site4573 (dsDNA)
# DNA 1: TATGCAAGGAACCACACACACACACCGAAATGTATA
# DNA 2: TATACATTTCGGTGTGTGTGTGTGGTTCCTTGCATA
# B18: CACACA_site2432 (dsDNA)
# DNA 1: CAAACCCACCAACACACACACACAAAAATGATTAAA
# DNA 2: TTTAATCATTTTTGTGTGTGTGTGTTGGTGGGTTTG
# B19: CACACA_site8543 (dsDNA)
# DNA 1: ATTAATATATAACGTGCACACACACCGTTACGTATG
# DNA 2: CATACGTAACGGTGTGTGTGCACGTTATATATTAAT
# B20: CACACA_site7630 (dsDNA)
# DNA 1: ATTATACACGCGCGCACACACAACAAAAAAAAAAAA
# DNA 2: TTTTTTTTTTTTGTTGTGTGTGCGCGCGTGTATAAT
# B21: CACACA_site269 (dsDNA)
# DNA 1: AAATAATTCAAAAAAACACACAAATTACAAAATAAA
# DNA 2: TTTATTTTGTAATTTGTGTGTTTTTTTGAATTATTT
# B22: CACACA_site9385 (dsDNA)
# DNA 1: AATATATGTTTAATTTCACACACAAATATACATTTT
# DNA 2: AAAATGTATATTTGTGTGTGAAATTAAACATATATT
# B23: CACACA_site6756 (dsDNA)
# DNA 1: ACAAATAAAAAAATTACACACATATAAAATATAGAT
# DNA 2: ATCTATATTTTATATGTGTGTAATTTTTTTATTTGT
# B24: CACACA_site1542 (dsDNA)
# DNA 1: AATGTACAAATACGTACACACATATATATATATATA
# DNA 2: TATATATATATATATGTGTGTACGTATTTGTACATT
# B25: CACACA_site8848 (dsDNA)
# DNA 1: ATATAAATTTTTTATGAACACACAAATACAGACACT
# DNA 2: AGTGTCTGTATTTGTGTGTTCATAAAAAATTTATAT
# B26: CACACA_site5095 (dsDNA)
# DNA 1: ACATCATTTTTATGTACACACACATATACGTTGAAT
# DNA 2: ATTCAACGTATATGTGTGTGTACATAAAAATGATGT
# B27: CACACA_site4006 (dsDNA)
# DNA 1: ATAAGGAAGGGATGCACACAAAAGGGTACATAAGAA
# DNA 2: TTCTTATGTACCCTTTTGTGTGCATCCCTTCCTTAT
# B28: CACACA_site8795 (dsDNA)
# DNA 1: CTTATATATTGCCCTTCACACACACCCATATATATA
# DNA 2: TATATATATGGGTGTGTGTGAAGGGCAATATATAAG
# B29: CACACA_site1745 (dsDNA)
# DNA 1: CACATACAGACATACACACATACACATATACGCATA
# DNA 2: TATGCGTATATGTGTATGTGTGTATGTCTGTATGTG
# B30: CACACA_site1501 (dsDNA)
# DNA 1: TAATAATAATTATATACACACATGTATATTATATTT
# DNA 2: AAATATAATATACATGTGTGTATATAATTATTATTA
# B31: CACACA_site6202 (dsDNA)
# DNA 1: CTCATCCTTACATACACACACATATATTTATTTATA
# DNA 2: TATAAATAAATATATGTGTGTGTATGTAAGGATGAG
# B32: CACACA_site7567 (dsDNA)
# DNA 1: TGCAACAAAATAAACACACACACACTAACACAAAAA
# DNA 2: TTTTTGTGTTAGTGTGTGTGTGTTTATTTTGTTGCA
# B33: CACACA_site4891 (dsDNA)
# DNA 1: TAATAAATAGGACACACACACATATATATATATTAT
# DNA 2: ATAATATATATATATGTGTGTGTGTCCTATTTATTA
# B34: CACACA_site4209 (dsDNA)
# DNA 1: TATATATATGGACACACACACACCAAAGCGTAGCGC
# DNA 2: GCGCTACGCTTTGGTGTGTGTGTGTCCATATATATA
# B35: CACACA_site9055 (dsDNA)
# DNA 1: ATATATATATATATTGTACACACATTTATGCATATA
# DNA 2: TATATGCATAAATGTGTGTACAATATATATATATAT
# B36: CACACA_site2250 (dsDNA)
# DNA 1: GAAAGAATAAAATTTACACACATATATATATACATA
# DNA 2: TATGTATATATATATGTGTGTAAATTTTATTCTTTC
# B37: CACACA_site8083 (dsDNA)
# DNA 1: AAAAAAAAAAAAAAAACACACACATGCACATCATAT
# DNA 2: ATATGATGTGCATGTGTGTGTTTTTTTTTTTTTTTT
# B38: CACACA_site1431 (dsDNA)
# DNA 1: AAAAAAAAAAAAAATACACACAAATAATAAAAATAA
# DNA 2: TTATTTTTATTATTTGTGTGTATTTTTTTTTTTTTT
# B39: CACACA_site336 (dsDNA)
# DNA 1: GGAGCACCCAGACACACACACACATATATATATATA
# DNA 2: TATATATATATATGTGTGTGTGTGTCTGGGTGCTCC
# B40: CACACA_site8596 (dsDNA)
# DNA 1: AATGTGTATATATATACACACACATATATATATTTT
# DNA 2: AAAATATATATATGTGTGTGTATATATATACACATT
# B41: CACACA_site1016 (dsDNA)
# DNA 1: AAATAATGGTTAGCTACACACAAAGCATTTTTTGAA
# DNA 2: TTCAAAAAATGCTTTGTGTGTAGCTAACCATTATTT
# B42: CACACA_site7641 (dsDNA)
# DNA 1: TACATACACAGACACACACACATATAAATATAAATA
# DNA 2: TATTTATATTTATATGTGTGTGTGTCTGTGTATGTA
# B43: CACACA_site6324 (dsDNA)
# DNA 1: CATAAATCAGCCATAACACACATACCTATATACATA
# DNA 2: TATGTATATAGGTATGTGTGTTATGGCTGATTTATG
# B44: CACACA_site9254 (dsDNA)
# DNA 1: TTAATAAATATCAATACACACACACTAATGTGAATA
# DNA 2: TATTCACATTAGTGTGTGTGTATTGATATTTATTAA
# Target: T1, AP2-HC D1
# Assay: gcPBM; about 25 ug protein; PBS, 1% milk, 0.2 mg/ml BSA, salmon testes DNA, 0.03% Triton X-100
# Conditions: tags: N-terminal GST (pGEX-4T-1), kept; label: surface-attached array probe
row,Binder,binding signal
1,B1,"10.2 ln median PBM intensity, better of two orientations"
2,B2,"10.3 ln median PBM intensity, better of two orientations"
3,B3,"10.2 ln median PBM intensity, better of two orientations"
4,B4,"10.4 ln median PBM intensity, better of two orientations"
5,B5,"10.2 ln median PBM intensity, better of two orientations"
6,B6,"10.5 ln median PBM intensity, better of two orientations"
7,B7,"10.2 ln median PBM intensity, better of two orientations"
8,B8,"10.1 ln median PBM intensity, better of two orientations"
9,B9,"10.3 ln median PBM intensity, better of two orientations"
10,B10,"10.4 ln median PBM intensity, better of two orientations"
11,B11,"10.5 ln median PBM intensity, better of two orientations"
12,B12,"10.4 ln median PBM intensity, better of two orientations"
13,B13,"10.3 ln median PBM intensity, better of two orientations"
14,B14,"10.1 ln median PBM intensity, better of two orientations"
15,B15,"10.2 ln median PBM intensity, better of two orientations"
16,B16,"10.2 ln median PBM intensity, better of two orientations"
17,B17,"10.6 ln median PBM intensity, better of two orientations"
18,B18,"10.5 ln median PBM intensity, better of two orientations"
19,B19,"10.3 ln median PBM intensity, better of two orientations"
20,B20,"10.3 ln median PBM intensity, better of two orientations"
21,B21,"10.2 ln median PBM intensity, better of two orientations"
22,B22,"10.2 ln median PBM intensity, better of two orientations"

row,Binder,binding signal
1,B23,"10.1 ln median PBM intensity, better of two orientations"
2,B24,"10.2 ln median PBM intensity, better of two orientations"
3,B25,"10.3 ln median PBM intensity, better of two orientations"
4,B26,"10.2 ln median PBM intensity, better of two orientations"
5,B27,"10.5 ln median PBM intensity, better of two orientations"
6,B28,"10.6 ln median PBM intensity, better of two orientations"
7,B29,"10.2 ln median PBM intensity, better of two orientations"
8,B30,"9.81 ln median PBM intensity, better of two orientations"
9,B31,"10.2 ln median PBM intensity, better of two orientations"
10,B32,"10.5 ln median PBM intensity, better of two orientations"
11,B33,"10.5 ln median PBM intensity, better of two orientations"
12,B34,"10.3 ln median PBM intensity, better of two orientations"
13,B35,"10.3 ln median PBM intensity, better of two orientations"
14,B36,"9.82 ln median PBM intensity, better of two orientations"
15,B37,"10.4 ln median PBM intensity, better of two orientations"
16,B38,"10.1 ln median PBM intensity, better of two orientations"
17,B39,"10.6 ln median PBM intensity, better of two orientations"
18,B40,"10.1 ln median PBM intensity, better of two orientations"
19,B41,"9.81 ln median PBM intensity, better of two orientations"
20,B42,"10.4 ln median PBM intensity, better of two orientations"
21,B43,"10.3 ln median PBM intensity, better of two orientations"
22,B44,"10.1 ln median PBM intensity, better of two orientations"
